Test results reported in patent US20200283521A1 (GRANULAR THERAPEUTICS, published 2020).
Like-named read-outs stand apart in the source and are kept apart here. Values belong to the binder of their own block, whether it stands above or below them.

What was measured:
[1] = molecular target: T1, hBAFFR-Fc (human, UniProt Q96RJ3); test: direct ELISA on coated protein, IgG1
T1 construct: Fc fusion; member of the panel m9

[2] = molecular target: T2, hCMET-Fc (The natural ectodomain is cleaved by furin after residue 307 into disulfide-linked alpha and beta chains. It is given here as one continuous stretch.); test: direct ELISA on coated protein, IgG1
T2 construct: member of the panel m9
T2 chain: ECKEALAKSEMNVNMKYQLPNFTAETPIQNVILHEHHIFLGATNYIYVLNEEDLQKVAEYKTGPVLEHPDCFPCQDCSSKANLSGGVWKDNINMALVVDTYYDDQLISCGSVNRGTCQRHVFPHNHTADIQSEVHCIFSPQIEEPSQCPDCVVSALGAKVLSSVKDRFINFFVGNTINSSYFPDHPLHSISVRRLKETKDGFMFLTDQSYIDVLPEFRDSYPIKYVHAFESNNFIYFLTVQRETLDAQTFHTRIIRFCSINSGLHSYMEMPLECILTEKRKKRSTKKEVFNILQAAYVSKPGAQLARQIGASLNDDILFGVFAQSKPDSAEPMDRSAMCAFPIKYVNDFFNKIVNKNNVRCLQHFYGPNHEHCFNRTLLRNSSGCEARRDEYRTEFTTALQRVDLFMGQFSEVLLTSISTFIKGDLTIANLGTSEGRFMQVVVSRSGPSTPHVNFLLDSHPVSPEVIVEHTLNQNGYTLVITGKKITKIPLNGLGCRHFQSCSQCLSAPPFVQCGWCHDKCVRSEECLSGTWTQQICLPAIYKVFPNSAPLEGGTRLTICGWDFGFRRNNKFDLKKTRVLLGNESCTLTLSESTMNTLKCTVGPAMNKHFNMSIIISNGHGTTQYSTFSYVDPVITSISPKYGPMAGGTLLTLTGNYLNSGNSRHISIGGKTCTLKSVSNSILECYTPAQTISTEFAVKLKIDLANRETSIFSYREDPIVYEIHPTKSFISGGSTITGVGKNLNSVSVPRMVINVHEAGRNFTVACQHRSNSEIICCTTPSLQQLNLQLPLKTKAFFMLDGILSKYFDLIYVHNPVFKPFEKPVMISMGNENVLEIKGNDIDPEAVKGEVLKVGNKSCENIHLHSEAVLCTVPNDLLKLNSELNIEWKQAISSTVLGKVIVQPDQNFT

[3] = molecular target: T3, hDR3-Fc (human, UniProt Q93038); test: direct ELISA on coated protein, IgG1
T3 construct: Fc fusion; member of the panel m9
T3 sequence (looked up): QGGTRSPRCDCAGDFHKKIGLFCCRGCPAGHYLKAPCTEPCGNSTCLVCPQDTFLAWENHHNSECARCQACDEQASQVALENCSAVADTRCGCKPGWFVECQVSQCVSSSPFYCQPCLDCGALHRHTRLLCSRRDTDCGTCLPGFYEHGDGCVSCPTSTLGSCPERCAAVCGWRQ

[4] = molecular target: T4, hICAM-1-Fc (human, UniProt P05362); test: direct ELISA on coated protein, IgG1
T4 construct: Fc fusion; member of the panel m9

[5] = molecular target: T5, hCD4 (human, UniProt P01730); test: direct ELISA on coated protein, IgG1
T5 construct: purified recombinant protein; member of the panel m9

[6] = molecular target: T6, hVCAM-Fc; test: direct ELISA on coated protein, IgG1
T6 construct: member of the panel m9
T6 chain: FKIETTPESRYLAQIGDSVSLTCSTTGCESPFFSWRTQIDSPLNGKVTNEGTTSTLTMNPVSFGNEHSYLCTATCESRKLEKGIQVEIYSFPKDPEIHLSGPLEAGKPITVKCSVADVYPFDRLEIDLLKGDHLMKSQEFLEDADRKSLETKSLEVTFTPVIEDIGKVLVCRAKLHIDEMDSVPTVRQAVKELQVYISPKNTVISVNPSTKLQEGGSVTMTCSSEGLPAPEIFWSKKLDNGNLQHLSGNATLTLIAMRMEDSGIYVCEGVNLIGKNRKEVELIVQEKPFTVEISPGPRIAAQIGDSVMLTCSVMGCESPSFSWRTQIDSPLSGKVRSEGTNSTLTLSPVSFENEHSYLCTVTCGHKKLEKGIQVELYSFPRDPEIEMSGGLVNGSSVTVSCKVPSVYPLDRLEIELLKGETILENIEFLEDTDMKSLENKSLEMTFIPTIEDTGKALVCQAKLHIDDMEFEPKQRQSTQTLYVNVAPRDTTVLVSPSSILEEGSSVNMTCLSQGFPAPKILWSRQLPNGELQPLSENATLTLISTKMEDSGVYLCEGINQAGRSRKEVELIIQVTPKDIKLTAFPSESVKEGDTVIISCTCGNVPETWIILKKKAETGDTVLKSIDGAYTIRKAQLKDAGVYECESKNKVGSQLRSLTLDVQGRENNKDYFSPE

[7] = molecular target: T7, hVCAM-1 (human, UniProt P19320); test: direct ELISA on coated protein, IgG1
T7 construct: purified recombinant protein; member of the panel m9
T7 sequence (looked up): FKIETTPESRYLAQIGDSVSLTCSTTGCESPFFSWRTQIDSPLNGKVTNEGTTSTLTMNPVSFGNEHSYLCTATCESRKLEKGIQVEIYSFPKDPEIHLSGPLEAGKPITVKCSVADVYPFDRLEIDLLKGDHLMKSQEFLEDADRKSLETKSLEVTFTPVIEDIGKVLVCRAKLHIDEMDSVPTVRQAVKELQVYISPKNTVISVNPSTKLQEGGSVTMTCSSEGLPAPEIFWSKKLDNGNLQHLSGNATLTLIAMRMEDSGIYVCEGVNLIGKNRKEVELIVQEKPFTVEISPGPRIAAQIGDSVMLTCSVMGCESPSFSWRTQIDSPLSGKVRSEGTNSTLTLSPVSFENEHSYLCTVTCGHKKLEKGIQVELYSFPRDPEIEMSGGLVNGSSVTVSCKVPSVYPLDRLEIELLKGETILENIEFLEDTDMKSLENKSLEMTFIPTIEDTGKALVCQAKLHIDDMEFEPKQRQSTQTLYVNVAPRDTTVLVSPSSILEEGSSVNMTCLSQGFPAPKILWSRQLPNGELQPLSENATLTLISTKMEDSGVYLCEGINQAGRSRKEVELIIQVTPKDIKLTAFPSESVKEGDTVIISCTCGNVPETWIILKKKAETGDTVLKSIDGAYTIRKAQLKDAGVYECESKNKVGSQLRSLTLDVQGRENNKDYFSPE

[8] = molecular target: T8, hLTBR-Fc (human, UniProt P36941); test: direct ELISA on coated protein, IgG1
T8 construct: Fc fusion; member of the panel m9

[9] = molecular target: T9, h4-1BB-Fc; test: direct ELISA on coated protein, IgG1
T9 construct: member of the panel m9

[10] = molecular target: T10, hDR6-Fc (human, UniProt O75509); test: direct ELISA on coated protein, IgG1
T10 construct: Fc fusion; member of the panel m9
T10 sequence (looked up): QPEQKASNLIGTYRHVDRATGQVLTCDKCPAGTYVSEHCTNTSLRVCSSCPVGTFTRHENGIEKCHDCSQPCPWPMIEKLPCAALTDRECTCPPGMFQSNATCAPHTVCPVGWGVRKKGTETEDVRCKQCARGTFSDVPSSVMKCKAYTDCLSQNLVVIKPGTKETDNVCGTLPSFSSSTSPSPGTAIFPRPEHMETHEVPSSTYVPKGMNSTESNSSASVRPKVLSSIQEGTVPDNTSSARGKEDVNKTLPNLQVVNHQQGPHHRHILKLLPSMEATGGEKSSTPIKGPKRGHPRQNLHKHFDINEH

[11] = molecular target: T11, hOX40-Fc; test: direct ELISA on coated protein, IgG1
T11 construct: member of the panel m9
T11 chain: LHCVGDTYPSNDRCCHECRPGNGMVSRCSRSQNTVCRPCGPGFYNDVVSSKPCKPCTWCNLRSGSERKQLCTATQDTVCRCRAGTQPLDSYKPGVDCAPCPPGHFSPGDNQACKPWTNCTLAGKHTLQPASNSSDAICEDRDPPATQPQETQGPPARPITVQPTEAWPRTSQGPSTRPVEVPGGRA

[12] = molecular target: T12, hEpCAM-Fc (human, UniProt P16422); test: direct ELISA on coated protein, IgG1
T12 construct: Fc fusion; member of the panel m9
T12 sequence (looked up): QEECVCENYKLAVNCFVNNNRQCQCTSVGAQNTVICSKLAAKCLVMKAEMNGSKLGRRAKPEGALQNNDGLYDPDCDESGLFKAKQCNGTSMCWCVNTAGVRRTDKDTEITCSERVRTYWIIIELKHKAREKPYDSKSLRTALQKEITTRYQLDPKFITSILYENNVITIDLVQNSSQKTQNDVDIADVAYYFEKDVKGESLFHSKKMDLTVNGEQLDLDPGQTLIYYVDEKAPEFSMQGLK

[13] = molecular target: T13, hTWEAK-Fc (human, UniProt O43508); test: direct ELISA on coated protein, IgG1
T13 construct: Fc fusion; member of the panel m9
T13 sequence (looked up): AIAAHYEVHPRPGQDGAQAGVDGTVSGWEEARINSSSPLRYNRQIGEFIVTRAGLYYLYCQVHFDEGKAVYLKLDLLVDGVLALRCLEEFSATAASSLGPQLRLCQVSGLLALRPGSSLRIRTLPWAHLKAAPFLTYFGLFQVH

[14] = molecular target: T14, cynomolgus monkey C-KIT-Fc (cynomolgus monkey); test: direct ELISA at 1 µg/ml
T14 construct: also called cyno C-KIT-Fc

[15] = molecular target: T15, human C-KIT-Fc (human, UniProt P10721 26-524); test: direct ELISA at 1 µg/ml
T15 construct: also called biotinylated human C-KIT-Fc; not shown: Fc part not described

[16] = molecular target: T14, cynomolgus monkey C-KIT-Fc; test: HTRF competition vs Tb-h37M IgG1
[17] = molecular target: T15, human C-KIT-Fc; test: HTRF competition vs Tb-h37M IgG1
[18] = molecular target: T15, human C-KIT-Fc; test: direct titration ELISA on coated C-KIT-Fc, IgG1 format
[19] = molecular target: T1, hBAFFR-Fc; test: direct ELISA on coated protein, IgG1; remark: listed apart in the source
[20] = molecular target: T2, hCMET-Fc; test: direct ELISA on coated protein, IgG1
[21] = molecular target: T3, hDR3-Fc; test: direct ELISA on coated protein, IgG1; remark: listed apart in the source
[22] = molecular target: T4, hICAM-1-Fc; test: direct ELISA on coated protein, IgG1; remark: listed apart in the source
[23] = molecular target: T5, hCD4; test: direct ELISA on coated protein, IgG1; remark: listed apart in the source
[24] = molecular target: T6, hVCAM-Fc; test: direct ELISA on coated protein, IgG1
[25] = molecular target: T7, hVCAM-1; test: direct ELISA on coated protein, IgG1; remark: listed apart in the source
[26] = molecular target: T8, hLTBR-Fc; test: direct ELISA on coated protein, IgG1; remark: listed apart in the source
[27] = molecular target: T9, h4-1BB-Fc; test: direct ELISA on coated protein, IgG1; remark: listed apart in the source
[28] = molecular target: T10, hDR6-Fc; test: direct ELISA on coated protein, IgG1; remark: listed apart in the source
[29] = molecular target: T11, hOX40-Fc; test: direct ELISA on coated protein, IgG1
[30] = molecular target: T12, hEpCAM-Fc; test: direct ELISA on coated protein, IgG1; remark: listed apart in the source
[31] = molecular target: T13, hTWEAK-Fc; test: direct ELISA on coated protein, IgG1; remark: listed apart in the source

T9 sequence (chain, as listed by the source limits assumed): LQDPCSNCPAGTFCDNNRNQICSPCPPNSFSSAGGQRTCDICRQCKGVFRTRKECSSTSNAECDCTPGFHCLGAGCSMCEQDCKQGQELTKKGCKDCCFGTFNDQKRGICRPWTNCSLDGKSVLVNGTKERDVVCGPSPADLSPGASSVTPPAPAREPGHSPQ
T4 sequence (P05362 28-480 limits assumed): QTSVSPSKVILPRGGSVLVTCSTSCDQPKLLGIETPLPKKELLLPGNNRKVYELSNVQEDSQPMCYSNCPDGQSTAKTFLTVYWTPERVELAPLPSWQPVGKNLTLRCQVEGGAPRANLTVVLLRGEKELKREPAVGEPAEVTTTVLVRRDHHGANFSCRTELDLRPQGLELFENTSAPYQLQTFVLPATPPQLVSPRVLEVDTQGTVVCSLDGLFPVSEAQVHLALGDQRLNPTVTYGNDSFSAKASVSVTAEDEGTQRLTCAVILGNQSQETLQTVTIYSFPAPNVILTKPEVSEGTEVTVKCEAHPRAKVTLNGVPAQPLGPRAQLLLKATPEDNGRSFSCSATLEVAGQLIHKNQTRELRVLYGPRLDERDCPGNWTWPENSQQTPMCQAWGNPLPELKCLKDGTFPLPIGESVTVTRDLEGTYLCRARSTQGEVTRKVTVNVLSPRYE
T8 sequence (P36941 28-227 limits assumed): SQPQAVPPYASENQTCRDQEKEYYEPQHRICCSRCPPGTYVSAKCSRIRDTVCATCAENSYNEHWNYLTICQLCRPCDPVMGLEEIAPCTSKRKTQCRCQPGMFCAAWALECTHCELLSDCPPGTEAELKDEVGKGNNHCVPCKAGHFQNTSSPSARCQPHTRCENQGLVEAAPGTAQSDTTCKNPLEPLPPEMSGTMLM
T1 sequence (Q96RJ3 7-71 limits assumed): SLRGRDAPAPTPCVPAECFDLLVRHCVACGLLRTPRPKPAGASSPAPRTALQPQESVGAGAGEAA

binding result [1]: no binding (tested: 1 µg/ml)
binding result [2]: no binding (tested: 1 µg/ml)
binding result [3]: no binding (tested: 1 µg/ml)
binding result [4]: no binding (tested: 1 µg/ml)
binding result [5]: no binding (tested: 1 µg/ml)
binding result [6]: no binding (tested: 1 µg/ml)
binding result [7]: no binding (tested: 1 µg/ml)
binding result [8]: no binding (tested: 1 µg/ml)
binding result [9]: no binding (tested: 1 µg/ml)
binding result [10]: no binding (tested: 1 µg/ml)
binding result [11]: no binding (tested: 1 µg/ml)
binding result [12]: no binding (tested: 1 µg/ml)
binding result [13]: no binding (tested: 1 µg/ml)
OD450 nm [14]: > 2 OD450 nm
OD450 nm [15]: > 1.8 OD450 nm
IC50 [16]: 0.051 µg/mL
IC50 [17]: 0.028 µg/mL
B1: E-C7 (antibody, IgG1, V domains shown)
VH: QVQLVQSGAEVKKPGASVKVSCKASGYTFTDYYMNWVRQAPGQGLEWMGRIYPGSGNTYYAQKFQGRVTMTRDTSTSTVYMELSSLRSEDTAVYYCARGVYYYDYWGQGTLVTVSS
VL: DIQMTQSPSSLSASVGDRVTITCRASQGIRTNLAWFQQKPGKAPKSLIYSASSLQSGVPSRFSGSGSGTDFTLTISSLQPEDFATYYCQQYNSYPRTFGGGTKVEIK
notes: IgG1; also called C-KIT-E-C7

EC50 (read off the curve) [18]: ~0.1 µg/mL
binding result [19]: no binding (tested: 1 µg/ml)
binding result [20]: no binding (tested: 1 µg/ml)
binding result [21]: no binding (tested: 1 µg/ml)
binding result [22]: no binding (tested: 1 µg/ml)
binding result [23]: no binding (tested: 1 µg/ml)
binding result [24]: no binding (tested: 1 µg/ml)
binding result [25]: no binding (tested: 1 µg/ml)
binding result [26]: no binding (tested: 1 µg/ml)
binding result [27]: no binding (tested: 1 µg/ml)
binding result [28]: no binding (tested: 1 µg/ml)
binding result [29]: no binding (tested: 1 µg/ml)
binding result [30]: no binding (tested: 1 µg/ml)
binding result [31]: no binding (tested: 1 µg/ml)
OD450 nm [14]: > 2 OD450 nm
OD450 nm [15]: > 1.8 OD450 nm
B2: E-C2 (antibody, IgG1, V domains shown)
VH: QVQLVQSGAEVKKPGASVKVSCKASGYTFTDYYMNWVRQAPGQGLEWMGRIYPGSGNTYYAQKFQGRVTMTRDTSTSTVYMELSSLRSEDTAVYYCARGVYYLDYWGQGTLVTVSS
VL: DIQMTQSPSSLSASVGDRVTITCRASQGIRTNVAWLQQKPGKAPKSLIYSASYRQSGVPSRFSGSGSGTDFTLTISSLQPEDFATYYCQQYNSYPRTFGGGTKVEIK
notes: IgG1; also called C-KIT-E-C2
